Assay results from US20230295310A1 (ABCELLERA BIOLOGICS, published 2023).

molecular target: human EGFR, C-terminal eGFP-tagged, on CHO-K1 cells (human, UniProt P00533 25-1210); assay: cell-based or functional assay

Row | EC50 CHO-K1 EGFR Low (nM); T cell activation bioassay, luciferase [nM] | EC50 CHO-K1 EGFR Med (nM); T cell activation bioassay, luciferase [nM] | Binder
1 | 1.31 | 0.239 | GOMP001_bsAb_013 (bispecific antibody, human IgG1, kappa, L234A L235A) heavy 1: QVQLVQSGAEVKKPGASVKVSCKASGYTFTSHWMHWVRKAPGQGLEWIGEFNPSNGRTNYNEEFKSKATMTVDTSTNTAYMELSSLRSEDTAVYYCASRDYDYDGRYFDYWGQGTLVTVSSASTKGPSVFPLAPSSKSTSGGTAALGCLVADYFPEPVTVSWNSGALTSGVHTFPAVLQSSGLYSLSSVVTVPSSSLGTQTYICNVNHKPSNTKVDEKVEPKSCDKTHTCPPCPAPEAAGGPSVFLFPPKPKDTLMISRTPEVTCVVVDVSHEDPEVKFNWYVDGVEVHNAKTKPREEQYNSTYRVVSVLTVLHQDWLNGKEYKCKVSNKALPAPIEKTISKAKGQPREPQVYTLPPSREEMTDNQVSLTCLVKGFYPSDIAVEWESNGQPENNYKTTPPVLMSDGSFFLASKLTVDKSRWQQGNVFSCSVMHEALHNHYTQKSLSLSPG light 1: RIQMTQSPSSLSASVGDRVTITCSASSSVTYMYWYQDKPGKAPKLLIYDTSNLASGVPSRFSGSGSGTDYTFTISSLQPEDIATYYCQQWSSHIFTFGQGTKVEIKRTVAAPSVFIFPPSDKQLKSGTARVVCLLNNFYPREAKVQWKVDNALQSGNSQESVTEQDSKDSTYSLSSTLTLSKADYEKHKVYACEVTHQGLSSPVTKSFNRGEC heavy 2: QVQLVQSGAEVKKPGASVKVSCKASGYTFTSYDINWVRYATGQGLEWMGWMNPKSGKTGYAQKFQGRITMTRNTPISTVYMDLSSLRSEDTAVYYCAREGHYDFWTGYYSFDYWGRGTLVTVSSASTKGPSVFPLAPSSKSTSGGTAALGCLVKDYFPEPVTVSWNSGALTSGVHTFPAVLQSSGLYSLSSVVTVPSSSLGTQTYICNVNHKPSNTKVDKKVEPKSCDKTHTCPPCPAPEAAGGPSVFLFPPKPKDTLMISRTPEVTCVVVDVSHEDPEVKFNWYVDGVEVHNAKTKPREEQYNSTYRVVSVLTVLHQDWLNGKEYKCKVSNKALPAPIEKTISKAKGQPRRPRVYTLPPSREEMTKNQVSLVCLVKGFYPSDIAVEWESNGQPENNYKTTPPVLDSDGSFFLYSVLTVDKSRWQQGNVFSCSVMHEALHNHYTQKSLSLSPG light 2: DIQMTQSPSSLSASVGDRVTITCRASQGIRNDLGWYQRTPGDAPKRLIYAASSLQSGVPSRFSGSGSGTEFTLTISSLQPEDFATYYCLQHYSYPYTFGQGTKLEIKRTVAAPSVFIFPPSDEQLKSGTASVVCLLNNFYPREAKVQWKVDNALQSGNSQESVTEQDSKDSTYSLSSTLTLSKADYEKHKVYACEVTHQGLSSPVTKSFNRGEC
2 | 0.515 | 0.0267 | GOMP001_bsAb_015 (bispecific antibody, human IgG1, kappa, L234A L235A) heavy 1: QVQLVQSGAEVKKPGASVKVSCKASGYTFTSHWMHWVRKAPGQGLEWIGEFNPSNGRTNYNEEFKSKATMTVDTSTNTAYMELSSLRSEDTAVYYCASRDYDYDGRYFDYWGQGTLVTVSSASTKGPSVFPLAPSSKSTSGGTAALGCLVADYFPEPVTVSWNSGALTSGVHTFPAVLQSSGLYSLSSVVTVPSSSLGTQTYICNVNHKPSNTKVDEKVEPKSCDKTHTCPPCPAPEAAGGPSVFLFPPKPKDTLMISRTPEVTCVVVDVSHEDPEVKFNWYVDGVEVHNAKTKPREEQYNSTYRVVSVLTVLHQDWLNGKEYKCKVSNKALPAPIEKTISKAKGQPREPQVYTLPPSREEMTDNQVSLTCLVKGFYPSDIAVEWESNGQPENNYKTTPPVLMSDGSFFLASKLTVDKSRWQQGNVFSCSVMHEALHNHYTQKSLSLSPG light 1: RIQMTQSPSSLSASVGDRVTITCSASSSVTYMYWYQDKPGKAPKLLIYDTSNLASGVPSRFSGSGSGTDYTFTISSLQPEDIATYYCQQWSSHIFTFGQGTKVEIKRTVAAPSVFIFPPSDKQLKSGTARVVCLLNNFYPREAKVQWKVDNALQSGNSQESVTEQDSKDSTYSLSSTLTLSKADYEKHKVYACEVTHQGLSSPVTKSFNRGEC heavy 2: QVQLVESGGGVVQPGRSLRLSCAASGFTFSGYGMHWVRYAPGKGLDWVAIIYYNGNNKYYADRVKGRFTISRDNSKNTLYLQMNSLRAEDTAVYYCARGGGYNWFDPWGRGTLVIVSSASTKGPSVFPLAPSSKSTSGGTAALGCLVKDYFPEPVTVSWNSGALTSGVHTFPAVLQSSGLYSLSSVVTVPSSSLGTQTYICNVNHKPSNTKVDKKVEPKSCDKTHTCPPCPAPEAAGGPSVFLFPPKPKDTLMISRTPEVTCVVVDVSHEDPEVKFNWYVDGVEVHNAKTKPREEQYNSTYRVVSVLTVLHQDWLNGKEYKCKVSNKALPAPIEKTISKAKGQPRRPRVYTLPPSREEMTKNQVSLVCLVKGFYPSDIAVEWESNGQPENNYKTTPPVLDSDGSFFLYSVLTVDKSRWQQGNVFSCSVMHEALHNHYTQKSLSLSPG light 2: not shown
3 | 0.238 | 0.0722 | GOMP001_bsAb_014 (bispecific antibody, human IgG1, kappa, L234A L235A) heavy 1: QVQLVQSGAEVKKPGASVKVSCKASGYTFTSYDINWVRYATGQGLEWMGWMNPKSGKTGYAQKFQGRITMTRNTPISTVYMDLSSLRSEDTAVYYCAREGHYDFWTGYYSFDYWGRGTLVTVSSASTKGPSVFPLAPSSKSTSGGTAALGCLVKDYFPEPVTVSWNSGALTSGVHTFPAVLQSSGLYSLSSVVTVPSSSLGTQTYICNVNHKPSNTKVDKKVEPKSCDKTHTCPPCPAPEAAGGPSVFLFPPKPKDTLMISRTPEVTCVVVDVSHEDPEVKFNWYVDGVEVHNAKTKPREEQYNSTYRVVSVLTVLHQDWLNGKEYKCKVSNKALPAPIEKTISKAKGQPRRPRVYTLPPSREEMTKNQVSLVCLVKGFYPSDIAVEWESNGQPENNYKTTPPVLDSDGSFFLYSVLTVDKSRWQQGNVFSCSVMHEALHNHYTQKSLSLSPG light 1: DIQMTQSPSSLSASVGDRVTITCRASQGIRNDLGWYQRTPGDAPKRLIYAASSLQSGVPSRFSGSGSGTEFTLTISSLQPEDFATYYCLQHYSYPYTFGQGTKLEIKRTVAAPSVFIFPPSDEQLKSGTASVVCLLNNFYPREAKVQWKVDNALQSGNSQESVTEQDSKDSTYSLSSTLTLSKADYEKHKVYACEVTHQGLSSPVTKSFNRGEC heavy 2: QVQLVQSGAEVKKPGASVKVSCKASGYTFTSHWMHWVRYAPGQGLEWIGEFNPSNGRTNYNEKFKSKATMTVDTSTNTAYMELSSLRSEDTAVYYCASRDYDYDGRYFDYWGRGTLVTVSSASTKGPSVFPLAPSSKSTSGGTAALGCLVKDYFPEPVTVSWNSGALTSGVHTFPAVLQSSGLYSLSSVVTVPSSSLGTQTYICNVNHKPSNTKVDKKVEPKSCDKTHTCPPCPAPEAAGGPSVFLFPPKPKDTLMISRTPEVTCVVVDVSHEDPEVKFNWYVDGVEVHNAKTKPREEQYNSTYRVVSVLTVLHQDWLNGKEYKCKVSNKALPAPIEKTISKAKGQPRRPRVYTLPPSREEMTKNQVSLVCLVKGFYPSDIAVEWESNGQPENNYKTTPPVLDSDGSFFLYSVLTVDKSRWQQGNVFSCSVMHEALHNHYTQKSLSLSPG light 2: DIQMTQSPSSLSASVGDRVTITCSASSSVTYMYWYQRKPGDAPKLLIYDTSNLASGVPSRFSGSGSGTDYTFTISSLQPEDIATYYCQQWSSHIFTFGQGTKVEIKRTVAAPSVFIFPPSDEQLKSGTASVVCLLNNFYPREAKVQWKVDNALQSGNSQESVTEQDSKDSTYSLSSTLTLSKADYEKHKVYACEVTHQGLSSPVTKSFNRGEC
